{
  "source": "patent US20230399641A1",
  "key": {"[1]": {"biological_target": "full-length human ACE2 mutant AAA/K353del over-expressed on hACE2-KO 293FT cells (human) (UniProt Q9BYF1)"}, "[2]": {"biological_target": "full-length human ACE2 mutant AKA/K353del over-expressed on hACE2-KO 293FT cells (human) (UniProt Q9BYF1)"}, "[3]": {"biological_target": "full-length human ACE2 mutant K353del over-expressed on hACE2-KO 293FT cells (human) (UniProt Q9BYF1)"}, "[4]": {"biological_target": "full-length human ACE2 mutant AAA/K353del over-expressed on hACE2-KO 293FT cells (human) (UniProt Q9BYF1)", "remark": "listed apart in the source"}, "[5]": {"biological_target": "full-length human ACE2 mutant AKA/K353del over-expressed on hACE2-KO 293FT cells (human) (UniProt Q9BYF1)", "remark": "listed apart in the source"}, "[6]": {"biological_target": "full-length human ACE2 mutant K353del over-expressed on hACE2-KO 293FT cells (human) (UniProt Q9BYF1)", "remark": "listed apart in the source"}, "[7]": {"biological_target": "full-length human ACE2 mutant AAA/K353del over-expressed on hACE2-KO 293FT cells (human) (UniProt Q9BYF1)", "remark": "listed apart in the source"}, "[8]": {"biological_target": "full-length human ACE2 mutant AKA/K353del over-expressed on hACE2-KO 293FT cells (human) (UniProt Q9BYF1)", "remark": "listed apart in the source"}, "[9]": {"biological_target": "full-length human ACE2 mutant AKA/K353del over-expressed on hACE2-KO 293FT cells (human) (UniProt Q9BYF1)", "remark": "listed apart in the source"}},
  "note": "Read-outs that look alike come from different tables or passages of the source.",
  "data": [
    {"substance": "receptor binding domain (RBD) of B.1.1.7 SARS-CoV-2 spike (residues 319-541) (from UniProt P0DTC2 319-541) (ligand)", "values": [
      {"measurement": "% cells stained positive", "setting": "[1]", "value": 1.6, "unit": "%"},
      {"measurement": "% cells stained positive", "setting": "[2]", "value": 1.6, "unit": "%"},
      {"measurement": "% cells stained positive", "setting": "[3]", "value": 1.4, "unit": "%"}
    ]},
    {"substance": "receptor binding domain (RBD) of B.1.351 SARS-CoV-2 spike (residues 319-541) (from UniProt P0DTC2 319-541) (ligand)", "values": [
      {"measurement": "% cells stained positive", "setting": "[1]", "value": 3.5, "unit": "%"},
      {"measurement": "% cells stained positive", "setting": "[2]", "value": 4, "unit": "%"},
      {"measurement": "% cells stained positive", "setting": "[3]", "value": 3.5, "unit": "%"},
      {"measurement": "% of cells in the PE-positive (RBD-bound) gate", "setting": "No hACE2", "value": 0.41, "unit": "%"},
      {"measurement": "% of cells in the PE-positive (RBD-bound) gate", "setting": "[4]", "value": 3.76, "unit": "%"},
      {"measurement": "% of cells in the PE-positive (RBD-bound) gate", "setting": "[5]", "value": 3.48, "unit": "%"},
      {"measurement": "% of cells in the PE-positive (RBD-bound) gate", "setting": "[6]", "value": 5.07, "unit": "%"}
    ]},
    {"substance": "receptor binding domain (RBD) of P.1 SARS-CoV-2 spike (residues 319-541) (from UniProt P0DTC2 319-541) (ligand)", "values": [
      {"measurement": "% cells stained positive", "setting": "[1]", "value": 2.6, "unit": "%"},
      {"measurement": "% cells stained positive", "setting": "[2]", "value": 2.9, "unit": "%"},
      {"measurement": "% cells stained positive", "setting": "[3]", "value": 2.3, "unit": "%"},
      {"measurement": "% of cells in the PE-positive (RBD-bound) gate", "setting": "[7]", "value": 2.03, "unit": "%"},
      {"measurement": "% of cells in the PE-positive (RBD-bound) gate", "setting": "[8]", "value": 1.82, "unit": "%"}
    ]},
    {"substance": "receptor binding domain (RBD) of wildtype SARS-CoV-2 spike (residues 319-541) (from UniProt P0DTC2 319-541) (ligand)", "values": [
      {"measurement": "% cells stained positive", "setting": "[3]", "value": 1.8, "unit": "%"},
      {"measurement": "% of cells in the PE-positive (RBD-bound) gate", "setting": "[9]", "value": 0.56, "unit": "%"}
    ]}
  ]
}
